From publication PMC1807962 (Nucleic Acids Research, 2007)
Several values for one entry are separate records, joined by “and”; a condition that tells them apart may be missing. Equal entries are not always repeated.

Columns and labels:
Experiment in all cases: SEC
[1] = biological target: Sso MCM ▵A (lacking the N-terminal A domain) (Sulfolobus solfataricus)
[2] = biological target: Sso MCM AAA+ core domain (Sulfolobus solfataricus)
[3] = biological target: Sso MCM ▵A/HTH (lacking both the A domain and the HTH domain) (Sulfolobus solfataricus)
[4] = biological target: Sso MCM C-half (C-terminal half, AAA+ and HTH domains) (Sulfolobus solfataricus)
SEC = biological target: the molecule itself

Question: Which stoichiometry N [1] does the source give for “Sso MCM ▵A (lacking the N-terminal A domain) (domain or fragment)” here?
Answer: 6

Question: “Sso MCM AAA+ core domain (domain or fragment)” was tested. Which stoichiometry N [2] did it give?
Answer: 2

Question: For “Sso MCM ▵A/HTH (lacking both the A domain and the HTH domain) (domain or fragment)”, which stoichiometry N [3] is on record?
Answer: 6

Question: How did the stoichiometry N [4] turn out when “Sso MCM C-half (C-terminal half, AAA+ and HTH domains) (domain or fragment)” was run?
Answer: 2

B1: Sulfolobus solfataricus MCM, full-length, wild-type (natural protein)
chain: MEIPSKQIDYRDVFIEFLTTFKGNNNQNKYIERINELVAYRKKSLIIEFSDVLSFNENLAYEIINNTKIILPILEGALYDHILQLDPTYQRDIEKVHVRIVGIPRVIELRKIRSTDIGKLITIDGILVKVTPVKERIYKATYKHIHPDCMQEFEWPEDEEMPEVLEMPTICPKCGKPGQFRLIPEKTKLIDWQKAVIQERPEEVPSGQLPRQLEIILEDDLVDSARPGDRVKVTGILDIKQDSPVKRGSRAVFDIYMKVSSIEVSQKVLDEVIISEEDEKKIKDLAKDPWIRDRIISSIAPSIYGHWELKEALALALFGGVPKVLEDTRIRGDIHILIIGDPGTAKSQMLQFISRVAPRAVYTTGKGSTAAGLTAAVVREKGTGEYYLEAGALVLADGGIAVIDEIDKMRDEDRVAIHEAMEQQTVSIAKAGIVAKLNARAAVIAAGNPKFGRYISERPVSDNINLPPTILSRFDLIFILKDQPGEQDRELANYILDVHSGKSTKNIIDIDTLRKYIAYARKYVTPKITSEAKNLITDFFVEMRKKSSETPDSPILITPRQLEALIRISEAYAKMALKAEVTREDAERAINIMRLFLESVGVDMESGKIDIDTIMTGKPKSAREKMMKIIEIIDSLAVSSECAKVKDILKEAQQVGIEKSNIEKLLTDMRKSGIIYEAKPECYKKV
Question: With B1 as the molecule, how does the “stoichiometry N” value (SEC) read?
Answer: ≤ 12 and 6
